The supplement of paper PMC10126150
± gives the standard deviation of the averaged measurements.

Test system: ATP
Experiment: switch fluorescence ratio, 500 uM ATP over buffer (Cy3 cluster intensity, sum of 5 cycles each) (fold (ratio)); higher = stronger signal-on switching upon ATP binding; sequences stand for … in TCGTCGGCAGCGTCAGATGTGTATAAGAGACAGTTTTTTTTTTTTTTTTTTTTTTTTT…TC
Details: aptamer strand: ATP DNA aptamer (quencher-CACCTGGGGGAGTATTGCGGAGGAAGG + anchor), 100 nM annealed; ATP concentration: 500 uM
How it was run: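 Five buffer/ATP imaging cycles were run on Cy3-labelled switching-strand clusters on a modified Illumina MiSeq flow-cell, with NaOH stripping and re-annealing between cycles. In each cycle, clusters annealed to 100 nM quencher-labelled ATP aptamer were imaged in selection buffer, then after 15 min with 500 uM ATP at 22 °C. Per cluster, the fluorescence ratio is summed target-cycle over summed buffer-cycle Cy3 intensity, averaged per switch-domain sequence. Only clusters within 100-1000 RFU were kept.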
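Further: ATP exposure 15 min at 22 °C before imaging.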

| Sequence | switch fluorescence ratio |
| --- | --- |
| ACCTGGGGGA | 1.07 ± 0.11 |
| ACCTGGTCTC | 1.07 ± 0.027 |
| ACCTGTATGG | 1.03 ± 0.044 |
| ACCTGTGGGG | 1 ± 0.027 |
| ACCTTGAATT | 1 ± 0.0029 |
| ACCTTGATGG | 0.976 ± 0.077 |
| ACCTTGGGAA | 1.01 ± 0.017 |
| ACCTTGTGCA | 1.02 ± 0.04 |
| ACCTTTAACT | 1.03 ± 0.017 |
| ACCTTTGGGC | 0.996 ± 0.039 |
| ACCTTTGTTT | 1.001 ± 0.0054 |
| ACCTTTTACG | 1.15 ± 0.072 |
| ACCTTTTGTA | 1 ± 0.032 |
| ACGAAAATTA | 1.12 ± 0.14 |
| ACGAAAGGTG | 1.58 ± 0.072 |
| ACGAACTTGA | 1.19 ± 0.055 |
| ACGAATCCTT | 1.04 ± 0.013 |
| ACGAATGCGG | 0.941 ± 0.042 |
| ACGAATTTGT | 1.03 ± 0.038 |
| ACGAGACAGC | 1.191 ± 3.6e-05 |
| ACGAGAGTTG | 0.975 ± 0.021 |
| ACGAGCGATT | 1.7 ± 0.058 |
| ACGAGCTAGG | 1.13 ± 0.026 |

| Sequence | switch fluorescence ratio |
| --- | --- |
| ACGAGGGGAG | 1.02 ± 0.016 |
| ACGAGGGGCG | 1 ± 0.045 |
| ACGAGGTTAA | 1.01 ± 0.018 |
| ACGAGGTTGT | 0.982 ± 0.025 |
| ACGAGTACGG | 1.1 ± 0.025 |
| ACGAGTTAGG | 1.044 ± 0.0014 |
| ACGATAATTT | 1.18 ± 0.035 |
| ACGATCTGTG | 1.03 ± 0.033 |
| ACGATCTGTT | 1.0155 ± 0.00017 |
| ACGATGGCCT | 1 ± 0.014 |
| ACGATGGGCA | 1.05 ± 0.015 |
| ACGATGTGTT | 1.01 ± 0.025 |
| ACGATTTATC | 1.01 ± 0.016 |
| ACGATTTTGC | 1.04 ± 0.033 |
| ACGATTTTTT | 0.993 ± 0.013 |
| ACGCATGGGT | 1.04 ± 0.028 |
| ACGCATTCAT | 1.14 ± 0.027 |
| ACGCCCGAAC | 1.452 ± 0.013 |
| ACGCCCGGGT | 1.08 ± 0.051 |
| ACGCCTTATT | 1.03 ± 0.02 |
| ACGCGAGTAT | 1.05 ± 0.019 |
| ACGCGCGTGT | 1.02 ± 0.017 |
| ACGCGGAGTG | 1.02 ± 0.016 |

| Sequence | switch fluorescence ratio |
| --- | --- |
| ACGCGGATTG | 1.002 ± 0.0017 |
| ACGCGGTA | 1.02 ± 0.058 |
| ACGCGGTGAC | 1.09 ± 0.025 |
| ACGCGTGAAG | 1.03 ± 0.021 |
| ACGCTCAGGT | 1.29 ± 0.041 |
| ACGCTCCAGC | 1.056 ± 0.0053 |
| ACGCTGCTAC | 4.48 ± 0.3 |
| ACGCTTTATG | 1.03 ± 0.04 |
| ACGCTTTTTT | 1.01 ± 0.024 |
| ACGGAAAACG | 1.023 ± 0.0093 |
| ACGGAAGGGC | 1.11 ± 0.059 |
| ACGGAGGGAA | 1.07 ± 0.085 |
| ACGGCAAAGG | 1.155 ± 0.0063 |
| ACGGCTCAGA | 1.013 ± 0.0079 |
| ACGGCTTTTG | 1.025 ± 0.009 |
| ACGGGAAAGT | 1.06 ± 0.089 |
| ACGGGAGAGG | 1.02 ± 0.035 |
| ACGGGAGTGG | 0.998 ± 0.011 |
| ACGGGATTTG | 0.9822 ± 0.0073 |
| ACGGGATTTT | 1.03 ± 0.026 |
| ACGGGCCCGA | 1.02 ± 0.029 |
| ACGGGGAAAA | 1.03 ± 0.036 |
| ACGGGGAAAG | 0.9916 ± 0.0019 |

| Sequence | switch fluorescence ratio |
| --- | --- |
| ACGGGGACTG | 1.0927 ± 0.00086 |
| ACGGGGATCA | 0.981 ± 0.045 |
| ACGGGGATTT | 1.01 ± 0.019 |
| ACGGGGCCGC | 0.994 ± 0.045 |
| ACGGGGCTGG | 1.02 ± 0.048 |
| ACGGGGCTGT | 0.996 ± 0.017 |
| ACGGGGGACA | 1.02 ± 0.035 |
| ACGGGGGAGA | 1.24 ± 0.35 |
| ACGGGGGGTA | 1.02 ± 0.035 |
| ACGGGGGTTG | 1.03 ± 0.06 |
| ACGGGGGTTT | 0.997 ± 0.015 |
| ACGGGGTAGT | 1.02 ± 0.024 |
| ACGGGGTCGG | 1.01 ± 0.044 |
| ACGGGGTGCG | 0.986 ± 0.032 |
| ACGGGGTTCT | 0.965 ± 0.032 |
| ACGGGTAATG | 1.01 ± 0.035 |
| ACGGGTTTTG | 1.03 ± 0.024 |
| ACGGTAAACT | 1.18 ± 0.065 |
| ACGGTAACGC | 1.02 ± 0.011 |
| ACGGTAAGGA | 1.098 ± 0.0091 |
| ACGGTAGTTG | 0.9851 ± 0.009 |
| ACGGTATGGG | 1.07 ± 0.046 |
| ACGGTCGCGT | 1 ± 0.012 |

| Sequence | switch fluorescence ratio |
| --- | --- |
| ACGGTCTCGG | 1.01 ± 0.025 |
| ACGGTGAGGT | 1.02 ± 0.016 |
| ACGGTGGAGA | 1.05 ± 0.015 |
| ACGGTGGAGT | 1.02 ± 0.054 |
| ACGGTGGCGT | 1.02 ± 0.016 |
| ACGGTGGTCA | 1.023 ± 0.0092 |
| ACGGTGGTGG | 1.12 ± 0.12 |
| ACGGTGTAGG | 1.11 ± 0.12 |
| ACGGTGTCAC | 0.9774 ± 0.0012 |
| ACGGTGTTAC | 1.11 ± 0.027 |
| ACGGTTAGTG | 1.01 ± 0.018 |
| ACGTAATAGC | 2.07 ± 0.13 |
| ACGTACGGGT | 1.46 ± 0.12 |
| ACGTAGTCAT | 1.04 ± 0.03 |
| ACGTATCTCT | 1.17 ± 0.11 |
| ACGTATGGGC | 1.082 ± 0.0027 |
| ACGTATTTGT | 1.11 ± 0.013 |
| ACGTCAAAGG | 1.37 ± 0.51 |
| ACGTCCATTT | 1.06 ± 0.011 |
| ACGTCCTGCT | 1.07 ± 0.011 |
| ACGTCTACGC | 1.101 ± 0.0031 |
| ACGTCTAGTG | 0.965 ± 0.023 |
| ACGTCTTTGT | 1 ± 0.088 |

| Sequence | switch fluorescence ratio |
| --- | --- |
| ACGTGATTCA | 1.03 ± 0.074 |
| ACGTGCACGA | 1.01 ± 0.015 |
| ACGTGCAGTG | 0.9525 ± 0.0085 |
| ACGTGCGCAG | 1.07 ± 0.018 |
| ACGTGCTCGG | 1.007 ± 0.01 |
| ACGTGGCACA | 1.053 ± 0.0084 |
| ACGTGTGCGG | 0.959 ± 0.031 |
| ACGTGTGTGG | 0.989 ± 0.017 |
| ACGTTAATGA | 1.121 ± 0.002 |
| ACGTTCAGGG | 1.05 ± 0.059 |
| ACGTTGAGGG | 1.06 ± 0.049 |
| ACGTTGGACA | 1.12 ± 0.05 |
| ACGTTGGCGG | 1 ± 0.013 |
| ACGTTGTGGA | 1.027 ± 0.0075 |
| ACGTTTGGTG | 0.962 ± 0.03 |
| ACGTTTTTGT | 1.027 ± 0.0097 |
| ACGTTTTTTG | 0.99 ± 0.015 |
| ACTAAAAAGA | 1.07 ± 0.056 |
| ACTAAAGAGC | 1.12 ± 0.2 |
| ACTAAATCCT | 1.19 ± 0.02 |
| ACTAACTTTC | 1.1 ± 0.097 |
| ACTAAGAGTT | 1.03 ± 0.056 |
| ACTAATACGA | 2.41 ± 1.8 |

| Sequence | switch fluorescence ratio |
| --- | --- |
| ACTAATCGAA | 1.05 ± 0.013 |
| ACTAATGCTT | 1.01 ± 0.034 |
| ACTAATGTAT | 1 ± 0.014 |
| ACTAATTATT | 1.03 ± 0.021 |
| ACTACAGGCT | 1.026 ± 0.0035 |
| ACTACGATGG | 1.05 ± 0.018 |
| ACTACGCTTG | 1.29 ± 0.022 |
| ACTAGAAATG | 0.984 ± 0.017 |
| ACTAGAGCCA | 0.982 ± 0.011 |
| ACTAGGCAAT | 1.96 ± 0.27 |
| ACTAGGGGGA | 0.986 ± 0.023 |
| ACTAGGTATG | 1.01 ± 0.032 |
| ACTAGTAGGG | 1 ± 0.0095 |
| ACTAGTCGGA | 1.03 ± 0.028 |
| ACTATAATCA | 1.04 ± 0.026 |
| ACTATAGTAT | 1 ± 0.057 |
| ACTATGAACC | 1.051 ± 0.0016 |
| ACTATGATAT | 1.018 ± 0.0073 |
| ACTATGGAGC | 1.07 ± 0.077 |
